T1: GST-Pta1 (yeast, UniProt Q01329 1-785)
T1 sequence: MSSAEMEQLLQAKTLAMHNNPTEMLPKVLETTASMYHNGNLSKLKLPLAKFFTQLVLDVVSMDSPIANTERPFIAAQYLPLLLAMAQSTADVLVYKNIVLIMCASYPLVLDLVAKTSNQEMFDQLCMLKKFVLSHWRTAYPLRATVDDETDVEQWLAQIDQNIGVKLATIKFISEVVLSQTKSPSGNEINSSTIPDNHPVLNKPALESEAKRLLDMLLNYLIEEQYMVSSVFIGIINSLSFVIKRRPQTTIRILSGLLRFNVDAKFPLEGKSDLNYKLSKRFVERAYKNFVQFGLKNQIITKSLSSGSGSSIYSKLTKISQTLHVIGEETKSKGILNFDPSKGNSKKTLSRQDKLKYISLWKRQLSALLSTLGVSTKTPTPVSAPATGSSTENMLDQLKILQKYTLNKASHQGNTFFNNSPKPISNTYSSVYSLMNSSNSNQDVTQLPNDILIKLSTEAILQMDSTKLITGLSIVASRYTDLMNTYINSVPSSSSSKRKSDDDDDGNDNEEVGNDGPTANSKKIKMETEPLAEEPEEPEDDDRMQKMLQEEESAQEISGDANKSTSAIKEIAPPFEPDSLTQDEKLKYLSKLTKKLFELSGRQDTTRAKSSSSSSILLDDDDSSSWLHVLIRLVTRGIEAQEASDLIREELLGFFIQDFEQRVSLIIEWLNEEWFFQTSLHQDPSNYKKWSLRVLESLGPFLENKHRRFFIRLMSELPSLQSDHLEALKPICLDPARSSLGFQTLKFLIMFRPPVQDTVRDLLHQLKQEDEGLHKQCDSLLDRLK

T2: GST-hTFIIB (human, UniProt Q00403 1-316)
T2 sequence: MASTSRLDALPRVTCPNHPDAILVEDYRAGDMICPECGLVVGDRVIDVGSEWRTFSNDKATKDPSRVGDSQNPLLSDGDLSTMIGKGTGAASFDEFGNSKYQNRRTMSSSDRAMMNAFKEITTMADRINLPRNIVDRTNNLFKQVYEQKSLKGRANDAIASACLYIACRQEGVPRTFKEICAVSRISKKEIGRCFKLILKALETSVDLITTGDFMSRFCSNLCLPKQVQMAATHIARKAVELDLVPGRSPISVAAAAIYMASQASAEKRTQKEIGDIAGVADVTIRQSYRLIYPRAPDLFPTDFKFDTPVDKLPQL


Columns and labels:
GST-Pta1 = molecular target: T1, GST-Pta1; test: pull-down
GST-hTFIIB = molecular target: T2, GST-hTFIIB; test: pull-down

Binder	binding result (GST-Pta1)	binding result (GST-hTFIIB)
Hat-hSsu72 (natural protein) MPSSPLRVAVVCSSNQNRSMEAHNILSKRGFSVRSFGTGTHVKLPGPAPDKPNVYDFKTTYDQMYNDLLRKDKELYTQNGILHMLDRNKRIKPRPERFQNCKDLFDLILTCEERVYDQVVEDLNSREQETCQPVHVVNVDIQDNHEEATLGAFLICELCQCIQHTEDMENEIDELLQEFEEKSGRTFLHTVCFY	binds	binds
Hat-hSsu72Δ1-12 (domain or fragment) SSNQNRSMEAHNILSKRGFSVRSFGTGTHVKLPGPAPDKPNVYDFKTTYDQMYNDLLRKDKELYTQNGILHMLDRNKRIKPRPERFQNCKDLFDLILTCEERVYDQVVEDLNSREQETCQPVHVVNVDIQDNHEEATLGAFLICELCQCIQHTEDMENEIDELLQEFEEKSGRTFLHTVCFY	binds	binds

Reference: publication PMC548335 (Nucleic Acids Research, 2005)
